The IC50 is the concentration that inhibits the measured activity by half. One may read the Kd as the concentration at which binding is half-saturated.

The labels stand for the following.
B1: CFP-PARP2 (mCerulean fused to the N-terminus of the PARP2 ART domain) (domain or fragment, human, UniProt Q9UGN5-1 356-583, looked up)
chain: HPLDQHYRNLHCALRPLDHESYEFKVISQYLQSTHAPTHSDYTMTLLDLFEVEKDGEKEAFREDLHNRMLLWHGSRMSNWVGILSHGLRIAPPEAPITGYMFGKGIYFADMSSKSANYCFASRLKNTGLLLLSEVALGQCNELLEANPKAEGLLQGKHSTKGLGKMAPSSAHFVTLNGSTVPLGPASDTGILNPDGYTLNYNEYIVYNPNQVRMRYLLKVQFNFLQLW
notes: Construct order: His6 tag-CFP-TEV protease site-ART domain; source: E. coli BL21(DE3), purified (Ni-NTA IMAC, SEC); not shown: mCerulean (CFP), N-terminal, kept

In assay [1] the target is T1, PARP2 (Homo sapiens, UniProt Q9UGN5). The experiment in a line: FRET PARP2-HPF1 interaction inhibition (olaparib present); nanoDSF shift of the PARP2 ART domain ([…] to […] °C), none for HPF1. The format is binding. The arrangement: PARP2 ART domain (CFP-fused in FRET); with HPF1. A general note: Differential scanning fluorimetry follows unfolding on heating by fluorescence.

A further assay concerns the target T2, PARP1 (Homo sapiens, UniProt P09874, DEL678-787).
T2 construct: PARP1 ART fragment [T661-F676 + GSGSGSGG + (D788-W1014)], CFP-fused; with HPF1
Description: biochemical. The format is binding.

For assay [2], the target named is T1, PARP2. As to conditions: cited from earlier work.
The target of a further assay is PARP1 ART (Homo sapiens) (UniProt P09874). As to conditions: cited from earlier work.
Assay [3] has as its target T3, YFP-HPF1 (mCitrine fused to the N-terminus of full length HPF1) (UniProt Q9NWY4 1-346).
T3 construct: Histone PARylation Factor 1 (HPF1), full length; The methods print 'His6 tag- CFP-TEV protease site followed by full length HPF1' for the YFP-tagged HPF1; This is probably a slip for YFP, since the vector is pNIC-YFP; also called Histone PARylation Factor; source: E. coli BL21(DE3), purified (Ni-NTA IMAC, SEC); not shown: mCitrine (YFP), N-terminal, kept
T3 sequence (looked up): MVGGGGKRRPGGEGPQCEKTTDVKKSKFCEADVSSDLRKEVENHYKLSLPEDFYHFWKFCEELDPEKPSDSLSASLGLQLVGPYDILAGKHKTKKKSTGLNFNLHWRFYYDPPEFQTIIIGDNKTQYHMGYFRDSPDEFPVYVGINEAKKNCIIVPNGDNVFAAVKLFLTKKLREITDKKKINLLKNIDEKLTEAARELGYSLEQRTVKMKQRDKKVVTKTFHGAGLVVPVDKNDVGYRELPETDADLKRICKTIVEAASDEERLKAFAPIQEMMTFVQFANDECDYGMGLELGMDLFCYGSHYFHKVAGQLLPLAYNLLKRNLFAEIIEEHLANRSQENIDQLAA
Description: FRET or BRET; in solution; constant 400 nM CFP-PARP2 mixed with YFP-HPF1 250 nM to 10.5 µM, first mixed at high concentration in presence of Olaparib, salt backfilled; EmFRET by the method of Song et al.; 10 µl, 384-well plates, 4 replicates, 3 independent experiments. Particulars: both partners purified. (Bioluminescence resonance energy transfer reports proximity on the nanometre scale.)

For assay [4], the target named is B1. The experiment in a line: FRET or BRET; competition of the FRET pair (CFP-PARP2, YFP-HPF1) with desalted (buffer-exchanged) unlabeled HPF1; rFRET read-out; HPF1 aggregated at high concentrations without salt. Particulars: both partners purified.
Assay [5] addresses B1. The experiment in a line: FRET or BRET; competition of the FRET pair (400 nM CFP-PARP2, 800 nM YFP-HPF1) with increasing unlabeled HPF1 whose stock adds salt; rFRET read-out; apparent IC50; 20 µl, 384-well plates, 4 replicates. Particulars: both partners purified.

T2 sequence (P09874 788-1014, stated change not applied, other chains not shown): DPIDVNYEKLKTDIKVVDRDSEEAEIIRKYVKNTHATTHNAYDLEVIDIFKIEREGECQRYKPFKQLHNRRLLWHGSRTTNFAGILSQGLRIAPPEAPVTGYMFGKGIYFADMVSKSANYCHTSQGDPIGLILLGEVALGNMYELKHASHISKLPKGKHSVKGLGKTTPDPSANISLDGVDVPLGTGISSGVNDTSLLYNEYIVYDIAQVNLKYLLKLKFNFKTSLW
PARP1 ART (Homo sapiens), sequence (P09874 788-1014): as the sequence (P09874 788-1014, stated change not applied, other chains not shown) above

In the case of `CC(C)=CC[C@@H](OC(=O)C=C(C)C)C1=CC(=O)c2c(O)ccc(O)c2C1=O` [Dimethylacrylshikonin], the IC50 was 15.7 µM at PARP2 [1] and 29.3 µM at PARP1.

With `CC(C)=CC[C@H](O)C1=CC(=O)c2c(O)ccc(O)c2C1=O` [Alkannin], the IC50 came out at 21.2 µM on PARP2 [1] and 16.2 µM against PARP1.

With HPF1 (from UniProt Q9NWY4), the Kd with PARP2 [2] is 3 µM; with PARP1 ART (Homo sapiens) it was 1.5 µM.

In the case of B1, in assay [3], the Kd was 2 ± 0.18 µM.

B2: unlabeled HPF1 (full length) (natural protein, UniProt Q9NWY4 1-346, looked up)
chain: MVGGGGKRRPGGEGPQCEKTTDVKKSKFCEADVSSDLRKEVENHYKLSLPEDFYHFWKFCEELDPEKPSDSLSASLGLQLVGPYDILAGKHKTKKKSTGLNFNLHWRFYYDPPEFQTIIIGDNKTQYHMGYFRDSPDEFPVYVGINEAKKNCIIVPNGDNVFAAVKLFLTKKLREITDKKKINLLKNIDEKLTEAARELGYSLEQRTVKMKQRDKKVVTKTFHGAGLVVPVDKNDVGYRELPETDADLKRICKTIVEAASDEERLKAFAPIQEMMTFVQFANDECDYGMGLELGMDLFCYGSHYFHKVAGQLLPLAYNLLKRNLFAEIIEEHLANRSQENIDQLAA
notes: Histone PARylation Factor 1 (HPF1), full length, without fluorescent protein; also called unlabelled full length HPF1; desalted unlabeled HPF1
Take B2: the figures for the IC50 in assay [4] and in assay [5] were 24 µM and 1.5 µM, respectively.

(Values after article PMC10873324, “High-throughput screening assay for PARP-HPF1 interaction inhibitors to affect DNA damage repair” (Scientific Reports, 2024).)
